Data from patent US20250051821.

T1: IFF05588
T1 chain: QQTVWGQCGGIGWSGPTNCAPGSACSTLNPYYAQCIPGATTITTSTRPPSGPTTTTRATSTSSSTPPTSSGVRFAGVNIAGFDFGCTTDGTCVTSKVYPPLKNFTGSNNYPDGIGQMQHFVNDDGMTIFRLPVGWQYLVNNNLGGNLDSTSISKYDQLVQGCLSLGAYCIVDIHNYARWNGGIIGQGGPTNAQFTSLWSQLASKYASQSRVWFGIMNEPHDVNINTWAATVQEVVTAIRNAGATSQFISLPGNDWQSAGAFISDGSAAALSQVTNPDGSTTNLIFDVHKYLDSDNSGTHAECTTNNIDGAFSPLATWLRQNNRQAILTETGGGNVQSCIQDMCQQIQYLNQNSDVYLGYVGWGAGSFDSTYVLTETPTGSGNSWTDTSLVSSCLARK

T2: IFF07399
T2 chain: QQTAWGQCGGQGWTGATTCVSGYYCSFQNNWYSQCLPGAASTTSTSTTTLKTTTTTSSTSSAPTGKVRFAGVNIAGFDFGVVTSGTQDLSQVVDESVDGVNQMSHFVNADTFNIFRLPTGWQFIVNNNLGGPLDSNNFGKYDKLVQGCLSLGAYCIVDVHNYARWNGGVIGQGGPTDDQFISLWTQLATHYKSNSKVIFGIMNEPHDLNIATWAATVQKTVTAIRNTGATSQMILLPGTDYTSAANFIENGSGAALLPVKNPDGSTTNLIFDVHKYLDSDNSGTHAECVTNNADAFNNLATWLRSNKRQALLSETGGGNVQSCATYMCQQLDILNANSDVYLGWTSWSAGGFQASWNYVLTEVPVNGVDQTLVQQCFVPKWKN


Columns and labels:
IFF05588 = molecular target: T1, IFF05588
IFF07399 = molecular target: T2, IFF07399

Protein	Relative late peak area (centered, scaled, averaged over 5, 10 and 15 min) (IFF05588)	Relative late peak area (centered, scaled, averaged over doses, 24 h; sample diluted 10-fold) (IFF05588)	Gel mobility change (SDS-PAGE) (IFF07399)	further results
IFF21347 (protein) KLDKPVIQPNFPGGGLASLGQGLLDNLKPTQSTSDVWGAGWIPADCKSLVQGAGLSPNDITPFNIHYTDCSQTWTFCRHKDSPLSQTDIIDLFGRVPVRMRDYIRHYVFIPGNKSAGSSGDNTLMVGDVDITVFLHEIGHSLDSHAFDPSYGVPFSTGNVWISNYNQDSAVTDDYAQSSQQENFAQETVVSVYDKNVPGGIGNIQPNWQAIFHQYATLEGYIGDTIIPGGTCVNRLTDSQPVTMSNSAKFRRNLGPKPTVSLSPDVKEIKAIPMADSIKMTSFDEHGKPNGTYVIQL	1.74	1.14		Relative late peak area (reverse phase chromatography, 24 h) (IFF05588): 0.59
IFF21346 (protein) NLDKPVIQPNFPGGGLASLGQGLLDNLKPTQSTSDVWGAGWIPADCKSLVQGAGLSPNDITPFNIHYTDCSQTWTFCRHKDSPLSQTDIIDLFGRVPVRMRDYIRHYVFIPGNKSAGSSGDNTLMVGDVDITVFLHEIGHSLDSHAFDPSYGVPFSTGNVWISNYNQDSAVTDSYAQSSQQENFAQETVVSVYDKNVPGGIGNIQPNWQAIFHQYATLEGYIGDTIIPGGTCVNRLTDSQPVTMSNSAKFRRTLGPKPTVSLSPDVKEIKPIPMADSIKMTSFDEHGKPNGTYVINL	0.52			Relative late peak area (centered, scaled, averaged over doses, 24 h; sample diluted 2-fold) (IFF05588): 1.07
IFF21372 (protein) QNLGKPVLFTDGLSPHVDASFWAHLNPTQSTWDQWGWGWIPQSCFDAANSNNVSPYDFEVFNVHYTDCGTAWVFCRHHSASLSQIDMIDLFGRLPVHERQWIRHVVAVPGGGSAYELNADVVFQGPVGTPSVFQHEVGHAVDFYKNGFQSSGTSQFLNAIQQDSCVPDDYANSNNVEDYTQVGVLSLYEIVNPGGLDPIGANWRCLVNQKNVLDGFQRDNMIPGGVCDRRWADSTIVKMGPAVPRVKRGPVGPIPQPAGLPVPGPSKAGPDVYKNLVFNATEKRNAETRQAAWQKAAKGAEA	1.62	1.18		Relative late peak area (reverse phase chromatography, 24 h) (IFF05588): 0.6
IFF21376 (protein) QTLDKPALTPDLDYLEQGAIDNLAPTQSTNDQWGSGWIPSDCKDIANNEGKNPDDFEIYNVHYDDCDDAWVFCRHKDTPTDLITTIDIFGRLPVAMRSWVRHVLTIPGDNYAYNSNGNIAFFGTTSGIMDVAIHETGHSLDLLGAYGDQLSSSQDWLDNYNQDSNVPDNYAQTNQIENVEQNTVVSVYDKVVPGGFGSAQPNWNNIFHQYATLQGKAGDQIIPGGSCDRHLVNSETVSTSDSAAAAMVDAVDKPVTSFKGNYTKILKTHAKFNTKESCYFGN	-0.99			Relative late peak area (centered, scaled, averaged over doses, 24 h; sample diluted 1-fold) (IFF05588): -1.61
IFF21374 (protein) QRLNKPALTPNLDYLEQGNIDNLHPTHSTWDKWGPGWIPADCKSIAQNEGKNPDDFEIYNVHYDDCSDAWVFCRHKDSNVDLVTTIDIFGRLPVKMRSWVRHVITIPGDSWAYNSNGNIAFFGTTSSSMDVAIHETGHSLDLLGAYWGKTFSDSSTWLDNYNQDPNVPDEYAQTNQVENVAQNTVVGVYDKVVPGGFGSVQPNWHNIFHQYATLQWGAGDQIIPGGTCDRHLQNSETVPTGNSALAFNAVNRPDTSLKGNYSNIVTDFKEFSTRGNCRI			yes	Relative late peak area (reverse phase chromatography, 24 h) (IFF05588): 0.51
IFF21370 (protein) DDTPPFKPVISPAFDFYGTLEDGLRANLAPTQSTWDQWGEGWIPDDCKWYAEYYGYAANEFEVFNVKYTDCDEAWIMCRHKQATVSQTGMIDLFGRLPLGMREYVKHVVMAPETKANTVASSYRGTIAFDQDYFSIYNLVHETGHCMDGTAALDVFPDGISSSSIWQDNYNQDSAVVRDYARSSWVENFAETGTVAVYDKVVPGGIGPIQPNWEQIYHQYATYNGYLSDIITPGAKDKCTQRRENSETVAMGASSRIMRSSPPDTSFKSDVKVMPAGANDEFFFEHSRDH	-1.05			modification of IFF05588 (reverse phase chromatography, 5 to 15 min) (IFF05588): All samples containing proteins related to IFF05497 except seven (IFF21355, IFF21358, IFF21356, IFF21361, IFF21370, IFF21357 and IFF21353) are able to modify IFF05588 under these reaction conditions
IFF21344 (protein) KLDKPIIQPNFPGGGLASLGQGLLNNLSPTQSTSDNWGAGWIPADCKSLVQGAGLSPFDVTPFNIHYTDCSQTWTFCRHKDSPLSQTDIIDLFGRVPVRMRDFIRHYVFIPGATSAGSSGDNTLMVGNVDITVFLHEIGHSLDSHAFDPSYGVPFSTSNVWISNYNLDSAVTDSYAQTSQQENFAQETVVSVYDKVVPGGIGTIQPNWQAIFHQYATLQGYIGNTIIPGGTCVNRLTDSQPVTMGNSAKFRRGLGPKPTVSLSPDVKEIKPIPMSDSITMTTFDEFGKANGTYVIHL	1.36	0.79	yes	
IFF21345 (protein) KLDKPIIQPNFPGGGLASLGQGLLNNLSPTQSTSDNWGAGWIPADCKSLVQGAGLSPFDVTPFNIHYTDCSQTWTFCRHKDSPLSQTDIIDLFGRVPVRMRDFIRHYVFIPGATSAGSSGDNTLMVGNVDITVFLHEIGHSLDSHAFDPSYGAPFSNSNIWISNYNLDSAVTDSYAQTSQQENFAQETVVSVYDKVVPGGIGTIQPNWQAIFHQYATLQGYIGDTIIPGGTCVNRLTDSQPVTMGNSAKFRRGLGPKPTVSLSPDVKEIKPIPMSDSITMTTFDEFGKANGTYVIHL	1.82	1.24		
IFF21366 (protein) QNLNKPVLFSDGLSPHVDSVFFQHLTPTQSTWDKWGWGWIPQACLSVVQGTQFSPYDIEVYNVHYTDCASAVVMCRHNQAQMSIINMIDAFGRIPIHDRQWTQHILALPAGGCSAGTGGAVTTFYGPCYIPSVFVHELTHTLDAFVNDKTGSTGAVHVYSTTSSYLNSVNQDSCVPDGYANTSPQEDYAQTSVLALYEKVNPGGLDPIGPWRCLVNAKNNLDSIIGQELTPGGSCTHRWADSAIVCMGPAAGCTSSKRGFEGRRGLKPVGPKPNPANKKGDPLVLDLLPDLASVVNAKITDFSHLSSNHTAGIEATIRINAWNKAAGKETVPVPKA	0.34		yes	Relative late peak area (centered, scaled, averaged over doses, 24 h; sample diluted 2-fold) (IFF05588): 1.02
IFF21361 (protein) DLLRPEIDTVFADGLGPLDQPLVDNLPLTSYTLNQWAPGWIPADCKAMIEGQNMSATEMTVWSVAYADCVDPWVMCQHPSAELNLTAMIDLFGRLPVKMRSLVRHLAAIPGRPWAYNSGTTGRISVFAHEVGHSMDYHGYFNDTRGQFSLSSLWLDNFAKDSGVADYYANTDQGENHSQEVVVALFDANVPGGLGSVTGNWSAILHQYATIQGFVGDGGDTLTPGGACSHRHNNSAAVPMTTEDAAQGPPPDVELTGPVHVYAFKPMEPVANATVVKEDGVAAPMVVKVF	-1.05			Relative late peak area (centered, scaled, averaged over doses, 24 h; sample diluted 1-fold) (IFF05588): -1.64; modification of IFF05588 (reverse phase chromatography, 5 to 15 min) (IFF05588): All samples containing proteins related to IFF05497 except seven (IFF21355, IFF21358, IFF21356, IFF21361, IFF21370, IFF21357 and IFF21353) are able to modify IFF05588 under these reaction conditions; modification of IFF05588 (reverse phase chromatography, 24 h, doses) (IFF05588): All samples containing proteins related to IFF05497 except two (IFF21376 and IFF21361) are able to modify IFF05588 under these reaction conditions. Close comparison of the chromatograms for these two samples show differences between buffer and sample chromatograms indicative of activity in the sampl
IFF21358 (protein) GNPDKPEVNPHIPYDRLENDLRNNLHPTQSTWDYWGAGWIPQGCKDLANTYHLNPADFTIFNVHYTDCSASWTFCRHKNAGASEIDMIDIFGRLPVRMRSYLRHLVATPGLNDGAAAWTWSSGDCVVESAPNLATLVHEVSHSLDWHALPQYQQPFSSSSIWQDNYNQDSATPTGYGRTNWMENFAETGMVGVYDKAVPGGIGNIEPNWNAIFHQYATYQGYLGDKIIAGGSCANRFDDTPPVAMSNSAKFKITSAKPETGIDFAGKNITQIIPSKEFEGLYIKG	-1.04		yes	Relative late peak area (centered, scaled, averaged over doses, 24 h; sample diluted 1-fold) (IFF05588): -1.46; modification of IFF05588 (reverse phase chromatography, 5 to 15 min) (IFF05588): All samples containing proteins related to IFF05497 except seven (IFF21355, IFF21358, IFF21356, IFF21361, IFF21370, IFF21357 and IFF21353) are able to modify IFF05588 under these reaction conditions
